# Where two headings read alike, the source gives them in different places.
# T1: human ST2L extracellular domain with C-terminal His6 tag (human, UniProt Q01638 19-328)
# T1 construct: also called huST2L-ECD; ST2L-ECD
# T1 sequence: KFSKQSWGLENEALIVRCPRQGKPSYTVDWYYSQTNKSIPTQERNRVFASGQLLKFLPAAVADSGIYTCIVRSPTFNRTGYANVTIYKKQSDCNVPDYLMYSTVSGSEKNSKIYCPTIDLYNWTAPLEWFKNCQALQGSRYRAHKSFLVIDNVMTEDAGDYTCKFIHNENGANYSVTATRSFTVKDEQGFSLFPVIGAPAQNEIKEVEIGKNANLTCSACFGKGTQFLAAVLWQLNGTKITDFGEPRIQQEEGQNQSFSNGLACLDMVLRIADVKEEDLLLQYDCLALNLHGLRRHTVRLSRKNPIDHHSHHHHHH
# T2: cynomolgus ST2L extracellular domain with C-terminal His6 tag (Macaca fascicularis (cyno), UniProt Q01638 19-321 (human entry))
# T2 construct: also called cynoST2L-ECD; cyno ST2L
# T2 chain: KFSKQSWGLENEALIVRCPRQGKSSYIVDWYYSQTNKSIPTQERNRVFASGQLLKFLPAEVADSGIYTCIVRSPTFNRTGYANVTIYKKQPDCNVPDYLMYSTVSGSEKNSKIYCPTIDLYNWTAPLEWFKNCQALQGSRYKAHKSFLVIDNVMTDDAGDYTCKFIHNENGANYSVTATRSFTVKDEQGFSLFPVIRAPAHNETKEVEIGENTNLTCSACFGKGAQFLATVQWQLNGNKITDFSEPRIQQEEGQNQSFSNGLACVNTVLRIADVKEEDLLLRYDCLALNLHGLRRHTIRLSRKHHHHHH
# T3: human ST2L on cells (human, UniProt Q01638 19-556)
# T3 sequence: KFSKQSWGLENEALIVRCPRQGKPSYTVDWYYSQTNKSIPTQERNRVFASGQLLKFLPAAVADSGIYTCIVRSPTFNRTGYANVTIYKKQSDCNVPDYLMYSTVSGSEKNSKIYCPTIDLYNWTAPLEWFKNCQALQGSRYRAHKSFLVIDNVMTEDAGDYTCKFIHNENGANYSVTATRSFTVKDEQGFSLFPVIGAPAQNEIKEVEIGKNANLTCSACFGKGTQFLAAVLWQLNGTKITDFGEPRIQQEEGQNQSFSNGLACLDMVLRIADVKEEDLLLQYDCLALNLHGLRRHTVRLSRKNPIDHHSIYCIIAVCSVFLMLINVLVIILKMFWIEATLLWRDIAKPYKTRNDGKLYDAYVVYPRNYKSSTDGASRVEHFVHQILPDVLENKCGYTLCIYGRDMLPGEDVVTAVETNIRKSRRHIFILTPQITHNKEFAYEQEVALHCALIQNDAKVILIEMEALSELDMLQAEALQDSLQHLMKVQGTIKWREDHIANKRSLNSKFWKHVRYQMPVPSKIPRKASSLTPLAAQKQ
# Key:
# 18AKF20-->TEG = assay: SPR, ProteOn XPR36, 25 C: mAb captured on anti-Fc surface, ST2L-D1D2 (HH-ST2L) wild type or variant injected, 1:1 model
# [1] = biological target: T1, human ST2L extracellular domain with …; assay: SPR, captured mAb, ST2L-ECD analyte
# [2] = biological target: T2, cynomolgus ST2L extracellular domain …; assay: SPR, captured mAb, ST2L-ECD analyte
# human ST2L on cells = biological target: T3, human ST2L on cells; assay: cell-based or functional assay
# [3] = biological target: T1, human ST2L extracellular domain with …; assay: SPR, captured mAb, ST2L-ECD analyte; remark: listed apart in the source
# Experimental: (§1) The interactions of anti-ST2L antibodies with His₆-tagged human ST2L-ECD and His₆-tagged cyno ST2L-ECD were studied by ProteOn using a ProteOn XPR36 at 25° C. A biosensor surface was prepared by coupling goat anti-human IgG Fcγ fragment specific antibody (Ab) to the surface of a GLC sensor chip using the manufacturer instructions for amine-coupling chemistry. The coupling buffer was 10 mM sodium acetate, pH 4.5. The goat anti-human IgG Fcγ (about 4500 response units) was immobilized in the horizontal orientation. The anti-ST2L antibodies were provided purified, or in crude supernatants. In either case these antibodies were diluted in PRB (PBS pH 7.4, supplemented with, 3 mM EDTA, and 0.005% Tween 20) to a concentration of about 0.5 μg/mL. The antibodies were captured (60-130 RU) in the vertical orientation onto the anti-human Fcγ antibody-modified GLC chip. Capture of anti-ST2L mAbs was followed by injection of huST2L ECD in solution (0.024 to 15 nM in 5-fold dilutions) or cynoST2L ECD in solution (0.020-5 nM in 4-fold dilutions) in the horizontal orientation. The association was monitored for 4 minutes in all experiments (200 μL injected at 50 μL/min). The dissociation was monitored for 30 minutes. Regeneration of the sensor surface was obtained with three 15 sec pulses of 10 mM glycine pH 1.5. The data were fit using the ProteOn software and using a 1:1 binding model with mass transfer.
# [4] = biological target: T2, cynomolgus ST2L extracellular domain …; assay: SPR, captured mAb, ST2L-ECD analyte
# Experimental: as §1
# [5] = biological target: T1, human ST2L extracellular domain with …; assay: RLB ELISA, inhibition of biotin-IL-33 binding to coated huST2L-ECD
# [6] = biological target: T1, human ST2L extracellular domain with …; assay: MSD electrochemiluminescence competition assay on plate-coated ST2L-ECD; unlabeled antibody titrated against 30 nM sulfo-tag labeled C2244 Fab
# Experimental: Competition binding assays were performed to evaluate different binding epitope groups for anti-ST2L mAbs. 5 μl (10 μg/ml) of ST2L-ECD protein was coated on MSD HighBind plate (Meso Scale Discovery, Gaithersburg, Md.) per well for 2 hr at room temperature. One-hundred and fifty microliters of 5% MSD Blocker A buffer (Meso Scale Discovery, Gaithersburg, Md.) was added to each well and incubated for 2 hr at room temperature. Plates were washed three times with 0.1 M HEPES buffer, pH 7.4, followed by the addition of the mixture of the MSD fluorescence dye (sulfo tag, NHS ester) labeled individual anti-ST2L antibody with different competitors. Labeled antibody, 10 or 30 nM, was incubated with increasing concentrations of competitor antibodies, from 1 nM to 2 or 5 μM, and then added to the designated wells in a volume of 25 μL mixture. After 2-hour incubation with gentle shaking at room temperature, plates were washed 3 times with 0.1M HEPES buffer (pH 7.4). MSD Read Buffer T was diluted with distilled water (4-fold) and dispensed at a volume of 150 μL/well and analyzed with a SECTOR Imager 6000.
binder,measurement,setting,value
"STLM208 (antibody, V domains shown) VH: EVQLLESGGGLVQPGGSLRLSCAASGFTFSIYDMIWVRQAPGKGLEWVSSIRGEGGGTYYADSVKGRFTISRDNSKNTLYLQMNSLRAEDTAVYYCARDPWSTEGSFFVLDYWGQGTLVTVSS VL: EIVLTQSPATLSLSPGERATLSCRASQSVDDDLAWYQQKPGQAPRLLIYDASNRATGIPARFSGSGSGTDFTLTISSLEPEDFAVYYCQQYITAPLTFGQGTKVEIK",Kd,18AKF20-->TEG,19.3 pM
same,koff,18AKF20-->TEG,0.000229 s⁻¹
same,kon,18AKF20-->TEG,1.3e+07 M⁻¹ s⁻¹
"ST2M50 (antibody, V domains shown) VH: EVQLVQSGAEVKKPGESLKISCKGSGYSFTSYWIGWVRQMPGKGLEWMGIIYPGDSYTRYSPSFQGQVTISADKSISTAYLQWSSLKASDTAMYYCARLSGRFDYWGQGTLVTVSS VL: EIVLTQSPATLSLSPGERATLSCRASQSVSNALAWYQQKPGQAPRLLIYFASNRATGIPARFSGSGSGTDFTLTISSLEPEDFAVYYCQQFFNWPITFGQGTKVEIK",Kd,[1],45 pM
same,koff,[1],5.1e-05 s⁻¹
same,kon,[1],1.15e+06 M⁻¹ s⁻¹
same,Kd,[2],124 pM
same,koff,[2],0.00249 s⁻¹
same,kon,[2],2.01e+07 M⁻¹ s⁻¹
"STLM206 (antibody, V domains shown, IgG; VH3-23 / Vk-L6 frameworks) VH: EVQLLESGGGLVQPGGSLRLSCAASGFTFSIYDMIWVRQAPGKGLEWVSTIRGEGGSTYYADSVKGRFTISRDNSKNTLYLQMNSLRAEDTAVYYCARDPWSTEGSFFVLDYWGQGTLVTVSS VL: EIVLTQSPATLSLSPGERATLSCRASQSVDDDLAWYQQKPGQAPRLLIYDASNRATGIPARFSGSGSGTDFTLTISSLEPEDFAVYYCQQYITAPLTFGQGTKVEIK",RGA IC50,human ST2L on cells,0.67 µg/mL
same,Kd,[3],25 pM
same,koff,[3],0.00016 s⁻¹
same,kon,[3],6.39e+06 M⁻¹ s⁻¹
same,Kd,[4],6 pM
same,koff,[4],0.000583 s⁻¹
same,kon,[4],9.4e+07 M⁻¹ s⁻¹
same,IC50,[5],0.4 µg/mL
"STLM15 (antibody, human IgG2, V domains shown, Mouse hybridoma C2244 V regions cloned into human IgG2 background = STLM15; also called C2244; C2244/STLM15) VH: EVQLQESGPGLVKPSQSLSLTCTVTGFSITSDYAWNWIRQFPGSKLEWMGFISYSGDTSFNPSLKSRISVTRDTSKNQFFLQLNSVTTEDTATYYCASYDGYSFDYWGQGTTLTVSS VL: DIVLTQSPASLAISLGQRATISCRASKSVSTSGSSYMFWYQQKPGQPPKLLIYLASNLESGVPARFSGSGSGTDFTLNIHPVEEEDAAAYYCQHSREIPYTFGGGTKLEIK",IC50 (read off the curve),[6],~100000 pM

# From patent US20130336980A1 (Janssen / Centocor, published 2013)
